Where no end group is shown, it is not given here.
T1: Peptide 4 (biotinylated N-terminus CCR8 peptide, amino acids 19-30) (human, also: biotinylated, position not given here)
T1 construct: Captured on streptavidin polystyrene beads
T1 peptide: DIFSSPCDAELI

T2: Peptide 5 (biotinylated N-terminus CCR8 peptide, amino acids 25-35) (human, also: biotinylated, position not given here)
T2 construct: Captured on streptavidin polystyrene beads
T2 peptide: CDAELIQTNGK

T3: Peptide 3 (biotinylated N-terminus CCR8 peptide, amino acids 13-24) (human, also: biotinylated, position not given here)
T3 construct: Captured on streptavidin polystyrene beads
T3 peptide: TDYYYPDIFSSP

T4: Peptide 2 (biotinylated N-terminus CCR8 peptide, amino acids 7-18) (human, also: biotinylated, position not given here)
T4 construct: Captured on streptavidin polystyrene beads
T4 peptide: LSVTTVTDYYYP

T5: Peptide 1 (biotinylated N-terminus CCR8 peptide, amino acids 1-12) (human, also: biotinylated, position not given here)
T5 construct: Captured on streptavidin polystyrene beads
T5 peptide: MDYTLDLSVTTV


Assays:
[1] = biological target: T1, Peptide 4 (biotinylated N-terminus CCR8 …); test: flow cytometry, biotinylated peptide on streptavidin beads
Description: (§1) The biotinylated human CCR8 peptides were captured on streptavidin polystyrene beads (Spherotech) in FACS buffer (PBS+2% Fetal Bovine Serum) at a final protein concentration of 50-100 ng/ml and incubated for 30 minutes at room temperature. Beads were washed twice with FACS buffer to remove unbound protein, centrifuged to pellet the beads, and resuspended and pooled together in StabilGuard (SurModics). The pooled biotinylated human CCR8 coated beads were added to hybridoma supernatant samples in a 96-well plate, such that the final antibody concentration was 5.0 μg/mL, and then incubated for one hour at room temperature.
(§2) Plates were washed twice with FACS buffer, centrifuged to pellet the beads, and supernatant was removed and resuspended in FACS buffer to remove unbound antibodies. Alexa Fluor 488 goat anti-human or rat IgG (Fcγ fragment specific) secondary antibodies (Jackson ImmunoResearch) made up in FACS buffer at 5.0 μg/mL were added to each well, resuspended with beads and incubated for 15 minutes at room temperature. Plates were washed twice with FACS buffer, centrifuged to pellet the beads, and supernatant was removed and resuspended in FACS buffer to remove unbound secondary antibodies. Samples were then resuspended in FACS buffer and read on either IntelliCyt® iQue Flow Cytometer.
(§3) Data are represented as a ratio of geometric mean binding to beads coated with specific peptide divided by geometric mean of binding to a bead coated with a negative control peptide (peptide with unrelated sequence). A value above two represents presence of binding.

[2] = biological target: T2, Peptide 5 (biotinylated N-terminus CCR8 …); test: as above
Description: as §1, §2, §3

[3] = biological target: T3, Peptide 3 (biotinylated N-terminus CCR8 …); test: as above
Description: as §1, §2, §3

[4] = biological target: T4, Peptide 2 (biotinylated N-terminus CCR8 …); test: as above
Description: as §1, §2, §3

[5] = biological target: T5, Peptide 1 (biotinylated N-terminus CCR8 …); test: flow cytometry, biotinylated peptide on streptavidin beads, antibody 5 ug/mL
Description: as §1
as §2, with “Cytometer. […]” for “Cytometer.”

[6] = biological target: T6, cynomolgus monkey CCR8 (comprising threonine at position four) (cynomolgus monkey, UniProt O97665 1-356 (rhesus entry)); test: KinExA, 293T cells expressing cynomolgus CCR8
T6 construct: also called Cyno CCR8; cynomolgus CCR8
T6 sequence (O97665 other isoform, or with tags, fused parts or gaps): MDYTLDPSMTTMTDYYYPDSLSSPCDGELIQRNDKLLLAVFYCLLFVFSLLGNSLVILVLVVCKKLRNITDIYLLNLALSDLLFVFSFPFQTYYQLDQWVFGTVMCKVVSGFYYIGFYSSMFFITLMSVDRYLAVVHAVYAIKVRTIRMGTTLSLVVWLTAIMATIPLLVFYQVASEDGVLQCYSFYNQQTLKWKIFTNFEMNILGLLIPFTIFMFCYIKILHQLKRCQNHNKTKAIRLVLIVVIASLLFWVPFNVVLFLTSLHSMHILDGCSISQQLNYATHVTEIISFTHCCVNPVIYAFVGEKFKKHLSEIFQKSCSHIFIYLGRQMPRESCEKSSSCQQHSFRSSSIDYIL
Description: For each equilibrium set, reference point controls included a sample with cell media only and a sample without cells. The equilibrium sets were incubated for 24 hours at room temperature, with shaking. After 24 hours of incubation, the supernatants were separated from the cell pellets via centrifugation at 500×g for five minutes. The supernatants of both high [Ab] and low [Ab] equilibrium sets were then run through a KinExA 3200 machine.
Each equilibrium sample set was read in duplicate on the KinExA machine. For low [Ab] equilibrium samples, 6.8 mL and 4.6 mL of each sample were run in duplicate, respectively, for human and cyno CCR8 equilibrium experiments. For high [Ab] equilibrium samples 16 μL and 75 μL of each sample were run in duplicate, respectively for human and cyno CCR8 equilibrium experiments.
For each equilibrium sample the free [Ab] was detected by running the equilibrium samples through the coated beads followed by a quick wash with the running buffer (1×PBS pH7.4+1% BSA+0.05% Sodium Azide). The secondary detection antibody (goat anti-huIgG (H+L) Alexa 647) was run through the flow cell at 680 ng/ml and 500 μL per run. The KinExA voltage output signal was used in KinExA software to calculate the Kd. […]

[7] = biological target: T5, Peptide 1 (biotinylated N-terminus CCR8 …); test: flow cytometry, biotinylated peptide on streptavidin beads
Description: as §1, §2, §3

[8] = biological target: T3, Peptide 3 (biotinylated N-terminus CCR8 …); test: flow cytometry, biotinylated peptide on streptavidin beads, antibody 5 ug/mL
Description: as §1
as §2, with “Cytometer. […]” for “Cytometer.”

Binder | binding result [1] | binding result [2] | binding result [3] | binding result [4] | ratio of geometric mean, peptide bead / negative control peptide bead [5] | Kd [6] [nM] | binding result [7] | ratio of geometric mean, peptide bead / negative control peptide bead [8]
Antibody 1 IgG2 (antibody, IgG2; tested as hybridoma supernatant) heavy: EVQLVESGGGLVKPGGSLRLSCAASGFTFSNARMGWVRQAPGKGLEWVGRIKSKTEGGTRDYAAPVKGRFTISRDDSKNTLYLQMNSLKTEDTAVYYCTSYSGVWGQGTMVTVSSASTKGPSVFPLAPCSRSTSESTAALGCLVKDYFPEPVTVSWNSGALTSGVHTFPAVLQSSGLYSLSSVVTVPSSNFGTQTYTCNVDHKPSNTKVDKTVERKCCVECPPCPAPPVAGPSVFLFPPKPKDTLMISRTPEVTCVVVDVSHEDPEVQFNWYVDGVEVHNAKTKPREEQFNSTFRVVSVLTVVHQDWLNGKEYKCKVSNKGLPAPIEKTISKTKGQPREPQVYTLPPSREEMTKNQVSLTCLVKGFYPSDIAVEWESNGQPENNYKTTPPMLDSDGSFFLYSKLTVDKSRWQQGNVFSCSVMHEALHNHYTQKSLSLSPGK light: not shown | no binding | no binding | no binding | no binding | 3 | 0.229 | – | –
Antibody 2 IgG2 (antibody, V domains shown, IgG2; tested as hybridoma supernatant) VH: QVQLVESGGGVVQPGRSLRLSCAASGFTFSNYGMHWVRQAPGKGLEWVAVISYDGSNKFYADSVKGRFTISRDNSKKTLYLQMSSLRVEDTAVYYCARAGGIGRFDYWGQGTLVTVSS VL: DFVMTQTPLSLSVTPGQPASISCKYSQSLLHSDGKTYLFWYLQKPGQPPHLLIYEVSNRFSGVPDRFSGSGSGTDFTLKISRVEAEDVGLYYCMQTLKLPLTFGGGTKVEINR | no binding | no binding | – | no binding | – | – | no binding | 157

— patent publication US20250171549A1 (Amgen, published 2025)
